Biological target: mouse platelet glycoprotein Ibα (mouse (endogenous in platelets)) (UniProt O35930)
UniProt O35930, sequence (O35930 17-734): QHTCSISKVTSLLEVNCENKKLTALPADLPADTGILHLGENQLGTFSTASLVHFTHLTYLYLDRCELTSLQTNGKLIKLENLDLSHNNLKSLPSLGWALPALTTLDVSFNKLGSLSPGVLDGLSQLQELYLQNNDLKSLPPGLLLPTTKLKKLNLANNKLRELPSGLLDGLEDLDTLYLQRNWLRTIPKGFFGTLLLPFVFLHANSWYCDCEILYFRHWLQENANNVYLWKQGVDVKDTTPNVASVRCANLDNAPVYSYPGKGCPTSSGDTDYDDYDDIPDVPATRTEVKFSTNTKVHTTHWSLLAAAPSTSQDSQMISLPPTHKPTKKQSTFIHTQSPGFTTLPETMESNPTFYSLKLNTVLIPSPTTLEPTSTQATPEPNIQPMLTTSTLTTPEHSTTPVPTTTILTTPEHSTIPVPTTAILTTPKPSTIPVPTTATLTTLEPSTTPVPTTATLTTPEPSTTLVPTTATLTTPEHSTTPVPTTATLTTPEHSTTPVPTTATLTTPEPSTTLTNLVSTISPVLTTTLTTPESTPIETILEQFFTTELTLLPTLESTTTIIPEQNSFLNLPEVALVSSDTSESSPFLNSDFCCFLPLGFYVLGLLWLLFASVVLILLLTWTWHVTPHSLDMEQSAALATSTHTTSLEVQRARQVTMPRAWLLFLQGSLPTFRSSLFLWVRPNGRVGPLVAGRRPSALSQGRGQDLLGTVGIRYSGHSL

## recombinant mouse von Willebrand factor, Q8CIZ8 764-2813
  translocation (rolling) velocity of Mical1+/+ platelets on immobilised recombinant mouse VWF at 1500 s-1 after αIIbβ3 blockade: 1.41 μm/s

— paper PMC12335590
